± gives the standard deviation of the averaged measurements.
B1: library; a variant is named by its letters at N, in order (parent)
chain: GCUGUCACCGAGAAACUGUGAAGUAUAUCUUAAACCUGGGCACUUAAAAGAUAUAUGGAGUUAGUAGUGCAACCUGCUCGGUCUGAUGAGUCCNNNNNNGGACGAAACAGC

Experiments:
cyclic di-GMP [1] = variants of: B1; test: normalized RNA/DNA level without ligand (relative to sTRSVctl = 100) (log10 (% of sTRSVctl)); HEK293T; ligand: cyclic di-GMP (c-di-GMP-II aptamer); higher = less ribozyme self-cleavage, higher mRNA level; details: reporter: mCherry (pCS4076), ligand present: no
Procedure, shortened: (§1)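 HEK293T cells were transfected with library plasmids carrying ribozyme switches linked to an mCherry reporter, or an eGFP reporter in some ligand experiments, at 4 µg per well of a 6-well plate, with any ligand added 1 h beforehand. After 72 h, total RNA was extracted with EDTA, reverse-transcribed, amplified, barcoded and sequenced. RNA level was defined as RNA reads over DNA reads, normalized to a spiked-in non-cleaving sequence or to the top-ranked sequences. That value was multiplied by 100 and converted to log10, the top set was 25 sequences, and only sequences with ≥100 DNA reads were retained.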

cyclic di-GMP [2] = variants of: B1; test: normalized RNA/DNA level with ligand (relative to sTRSVctl = 100) (log10 (% of sTRSVctl)); HEK293T; ligand: cyclic di-GMP (c-di-GMP-II aptamer); ligand concentration (+) RNA-Seq: 1 mM; higher = less ribozyme self-cleavage, higher mRNA level; details: reporter: mCherry (pCS4076), ligand present: yes
Procedure, shortened: as §1

Variant	normalized RNA/DNA level without ligand (log10) (cyclic di-GMP [1])	normalized RNA/DNA level with ligand (log10) (cyclic di-GMP [2])
GUCAUG	1.61 ± 0.037	1.75 ± 0.11
GUCAUA	1.57 ± 0.025	1.76 ± 0.14
AUCUUG	1.657 ± 0.0055	1.81 ± 0.093
AUCUUU	1.69 ± 0.046	1.86 ± 0.1
AUCUUA	1.61 ± 0.037	1.76 ± 0.12
AUCUUC	1.81 ± 0.038	1.92 ± 0.086
UUCGGU	1.75 ± 0.029	1.87 ± 0.056
UUCGGG	1.774 ± 0.011	1.9 ± 0.13
AUCGAC	1.631 ± 0.012	1.8 ± 0.075
AUCGAG	1.56 ± 0.058	1.78 ± 0.1
AUCGAA	1.45 ± 0.084	1.67 ± 0.09
AUCGAU	1.56 ± 0.076	1.77 ± 0.063
CUGCCA	1.613 ± 0.0037	1.76 ± 0.18
GUCGCC	1.77 ± 0.036	1.89 ± 0.12
GUCGCA	1.77 ± 0.021	1.86 ± 0.09
CUCUGG	1.81 ± 0.066	1.86 ± 0.14
CUCUGU	1.78 ± 0.062	1.91 ± 0.06
CUCUGC	1.7905 ± 0.00063	1.83 ± 0.13
CUCUGA	1.663 ± 0.015	1.81 ± 0.09
CUGAGA	1.46 ± 0.079	1.69 ± 0.11
CUGAGC	1.76 ± 0.033	1.87 ± 0.12
CUGAGG	1.73 ± 0.031	1.88 ± 0.16
UUCGAU	1.69 ± 0.066	1.85 ± 0.16
UUCGAG	1.6344 ± 1.3e-05	1.81 ± 0.14

Variant	normalized RNA/DNA level without ligand (log10) (cyclic di-GMP [1])	normalized RNA/DNA level with ligand (log10) (cyclic di-GMP [2])
UUCGAC	1.659 ± 0.0063	1.79 ± 0.12
UUCGAA	1.6 ± 0.041	1.82 ± 0.043
UUCCUA	1.68 ± 0.018	1.83 ± 0.11
UUCCUG	1.776 ± 0.017	1.91 ± 0.11
UUCCUU	1.73 ± 0.018	1.9 ± 0.099
UUCCUC	1.779 ± 0.013	1.91 ± 0.1
GUCGGU	1.67 ± 0.039	1.83 ± 0.062
GUCGGG	1.73 ± 0.025	1.84 ± 0.13
GUCGGC	1.65 ± 0.067	1.83 ± 0.053
GUGAUA	1.5 ± 0.034	1.7 ± 0.097
UUCUGA	1.73 ± 0.023	1.83 ± 0.046
UUCUGG	1.79 ± 0.04	1.89 ± 0.085
UUCUGC	1.784 ± 0.003	1.92 ± 0.08
UUCUGU	1.7281 ± 0.00073	1.86 ± 0.1
CUCGAG	1.71 ± 0.034	1.86 ± 0.11
CUCGAU	1.72 ± 0.023	1.86 ± 0.081
CUCGAC	1.714 ± 0.0032	1.85 ± 0.069
AUCUGU	1.731 ± 0.012	1.88 ± 0.15
AUCUGA	1.56 ± 0.099	1.71 ± 0.079
GUGAGG	1.61 ± 0.06	1.8 ± 0.093
GUGAGU	1.59 ± 0.053	1.77 ± 0.11
GUGAGC	1.51 ± 0.086	1.77 ± 0.041
CUCGGG	1.76 ± 0.031	1.88 ± 0.085
CUCGGU	1.79 ± 0.021	1.89 ± 0.16

Variant	normalized RNA/DNA level without ligand (log10) (cyclic di-GMP [1])	normalized RNA/DNA level with ligand (log10) (cyclic di-GMP [2])
CUCGGC	1.797 ± 0.0073	1.9 ± 0.088
UUCUAC	1.75 ± 0.025	1.9 ± 0.035
UUCUAU	1.721 ± 0.0074	1.83 ± 0.11
UUCUAG	1.75 ± 0.047	1.84 ± 0.15
UUCUAA	1.66 ± 0.025	1.8 ± 0.11
AUCUCC	1.806 ± 0.0081	1.9 ± 0.034
AUCUCA	1.666 ± 0.0097	1.78 ± 0.16
AUCUCG	1.76 ± 0.023	1.87 ± 0.15
AUCUCU	1.669 ± 0.0069	1.86 ± 0.042
GUCCUU	1.7 ± 0.019	1.87 ± 0.1
GUCCUC	1.75 ± 0.026	1.9 ± 0.1
GUCCUA	1.709 ± 0.0036	1.88 ± 0.083
AUCUAG	1.62 ± 0.032	1.8 ± 0.092
AUCUAA	1.52 ± 0.019	1.7 ± 0.091
AUCUAU	1.71 ± 0.073	1.79 ± 0.067
UUGAGA	1.58 ± 0.071	1.77 ± 0.11
UUGAGG	1.79 ± 0.028	1.87 ± 0.14
UUGAGC	1.73 ± 0.025	1.86 ± 0.14
UUGAGU	1.7248 ± 0.00016	1.83 ± 0.15
CUCCAG	1.73 ± 0.07	1.86 ± 0.055
CUCCAA	1.46 ± 0.096	1.72 ± 0.083
CUCCAC	1.719 ± 0.016	1.84 ± 0.092
CUCCAU	1.58 ± 0.035	1.82 ± 0.057
GUCCCA	1.772 ± 0.0084	1.87 ± 0.075

Variant	normalized RNA/DNA level without ligand (log10) (cyclic di-GMP [1])	normalized RNA/DNA level with ligand (log10) (cyclic di-GMP [2])
GUCCCU	1.77 ± 0.024	1.92 ± 0.091
GUCCCG	1.76 ± 0.058	1.85 ± 0.21
GUCCCC	1.76 ± 0.029	1.86 ± 0.061
GUGCCC	1.782 ± 0.016	1.84 ± 0.099
GUGCCA	1.785 ± 0.015	1.9 ± 0.12
UUCUCA	1.78 ± 0.073	1.9 ± 0.087
UUCUCC	1.83 ± 0.031	1.9 ± 0.1
UUCUCG	1.8 ± 0.065	1.91 ± 0.15
UUCUCU	1.8 ± 0.039	1.91 ± 0.11
AUCGCU	1.7 ± 0.023	1.81 ± 0.089
AUCGCA	1.65 ± 0.018	1.77 ± 0.12
AUCGCC	1.78 ± 0.013	1.88 ± 0.15
AUCGCG	1.75 ± 0.035	1.84 ± 0.054
CUCUUC	1.73 ± 0.052	1.87 ± 0.082
CUCUUU	1.6 ± 0.071	1.76 ± 0.079
AUCCUA	1.61 ± 0.041	1.78 ± 0.083
AUCCUU	1.74 ± 0.042	1.89 ± 0.081
AUCCUC	1.823 ± 0.0034	1.94 ± 0.079
GUCGUC	1.67 ± 0.036	1.78 ± 0.11
GUCGUG	1.62 ± 0.041	1.79 ± 0.1
GUCGUU	1.61 ± 0.017	1.8 ± 0.14
GUCGUA	1.63 ± 0.073	1.78 ± 0.095
AUGCAG	1.7646 ± 0.00074	1.89 ± 0.055
AUGCAA	1.52 ± 0.029	1.66 ± 0.12

Variant	normalized RNA/DNA level without ligand (log10) (cyclic di-GMP [1])	normalized RNA/DNA level with ligand (log10) (cyclic di-GMP [2])
AUGCAU	1.62 ± 0.045	1.76 ± 0.12
AUGCAC	1.714 ± 0.0048	1.86 ± 0.081
CUGCAC	1.742 ± 0.0034	1.88 ± 0.1
CUGCAG	1.73 ± 0.075	1.88 ± 0.11
CUGCAU	1.6242 ± 0.0013	1.77 ± 0.16
GUCUAC	1.739 ± 0.0096	1.89 ± 0.14
GUCUAG	1.62 ± 0.066	1.79 ± 0.072
GUCUAA	1.56 ± 0.069	1.72 ± 0.098
GUCUAU	1.64 ± 0.045	1.78 ± 0.14
UUCCAA	1.7 ± 0.037	1.84 ± 0.13
UUCCAC	1.7863 ± 0.00044	1.88 ± 0.13
UUCCAG	1.76 ± 0.022	1.89 ± 0.093
UUCCAU	1.73 ± 0.028	1.85 ± 0.15
GUCCGC	1.84 ± 0.03	1.93 ± 0.071
GUCCGA	1.63 ± 0.024	1.78 ± 0.14
GUCCGG	1.84 ± 0.12	1.96 ± 0.11
GUCCGU	1.65 ± 0.038	1.82 ± 0.069
CUGACG	1.8 ± 0.028	1.9 ± 0.17
CUGACA	1.51 ± 0.086	1.7 ± 0.075
CUGACU	1.52 ± 0.05	1.75 ± 0.11

Reference: the supplement of paper PMC6757056
